Measured values reported in patent US20240272170A1 (QUANTUM SI, published 2024).
Changes are numbered by the printed parent chain. In names and notes the source's numbering stands. Read-outs that look alike come from different tables or passages of the source. Each block holds one binder with its values, some of them ahead of it. No end group written: not given here. *: point of attachment. FITC = O=C1OC2(c3ccc(O)cc3Oc3cc(O)ccc32)c2ccc(NC(=S)*)cc21

Key:
[1] = biological target: T1, RA peptide (XAKLDEESILKQK-FITC, X = R); experiment: fluorescence polarization titration, PS621 0-5000 nM
T1 construct: also called peptide with N-terminal arginine
T1 peptide: RAKLDEESILKQK(FITC)
Procedure: (§1) Binding affinity was measured by polarization using a labeled peptide. The polarization response and total intensity measurements were carried out at 20° C. on a microplate fluorometer with 480 nm excitation and 530 nm emission. […] Multiple analyses were performed at increasing recognizer concentration at a fixed concentration of a target peptide to obtain a titration curve. An equilibrium polarization response at each concentration was plotted and fit to calculate the KD.
(§2) Fluorescence polarization assays were performed with all candidates, and single point binding responses were measured at a fixed concentration of the binders (FIG. 13A). […] We carried out multiple polarization binding titration analysis at increasing concentration of binder protein, and the Kds were determined from the titration curves (FIG. 13B).

[2] = biological target: T2, second R of YRELRLLK (RLLK); experiment: on-chip single-molecule dynamic sequencing, example traces, time axis 0-600 min
T2 construct: also called parent peptide after cleavage to the second arginine
T2 peptide: RLLK

[3] = biological target: T3, HA peptide (XAKLDEESILKQK-FITC, X = H); experiment: fluorescence polarization titration, 20 C
T3 construct: also called peptide with N-terminal histidine
T3 peptide: HAKLDEESILKQK(FITC)
Procedure: as §1, §2

[4] = biological target: T1, RA peptide (XAKLDEESILKQK-FITC, X = R); experiment: fluorescence polarization titration, 20 C
Procedure: as §1, §2

[5] = biological target: T4, QP1165 after cleavage to N-terminal alanine (AFLKQRVWK); experiment: on-chip dynamic sequencing of QP1165, PS2121 run, trace Aperture=740473
T4 peptide: AFLKQRVWK

[6] = biological target: T4, QP1165 after cleavage to N-terminal …; experiment: on-chip dynamic sequencing of QP1165, PS1875 run, trace Aperture=430641
[7] = biological target: T4, QP1165 after cleavage to N-terminal …; experiment: on-chip dynamic sequencing of QP1165, 500 nM PS2123 plus five recognizers, 62511 alignments
[8] = biological target: T4, QP1165 after cleavage to N-terminal …; experiment: on-chip dynamic sequencing of QP1165, PS1875 run, trace Aperture=1377116
Procedure: (§3) The semiconductor chip was placed in the sequencing device and a chip check was performed to test electronic circuit function and to optimize laser coupling alignment. The chip was then removed from the device socket and the chip was washed twice with 50 μL of 70% isopropanol, followed by four washes with 30 μL of wash buffer (50 mM MOPS pH 8.0, 60 mM potassium acetate, 50 mM glucose, 20 mM magnesium acetate, and surfactant mix) through a flow cell attached to the chip. A second chip check was then performed. The laser was then blocked via an integrated software-controlled shutter, peptide complex was added to a final concentration of 1-10 nM and mixed thoroughly, and the chip was incubated for 15 min. The chip was then washed six times with wash buffer, followed by addition of an imaging solution (wash buffer with 5 mM Trolox and an oxygen scavenging system). The laser was unblocked and the occupancy percentage (target 10-30%, Poisson distributed) was recorded by acquiring a photobleaching signal from a fluorophore attached to the peptide complex during 5 min of laser illumination. […] Data was recorded for 15 min. The laser was then blocked briefly and aminopeptidases were added to the sequencing reaction via the flow cell and mixed thoroughly (final concentration 2-8 μM PhTET2 and/or 20-80 μM PhTET3, as indicated according to the experiment). The laser was then unblocked, and data was recorded for 10 hours. For all runs, 30 μL of mineral oil was added to fluid reservoirs at each port of the flow cell to prevent evaporation during the run.

[9] = biological target: T4, QP1165 after cleavage to N-terminal …; experiment: on-chip dynamic sequencing of QP1165, 500 nM PS1875 plus five recognizers, 3369 alignments
[10] = biological target: T4, QP1165 after cleavage to N-terminal …; experiment: on-chip dynamic sequencing of QP1165, PS2132 run, trace Aperture=376215
[11] = biological target: T4, QP1165 after cleavage to N-terminal …; experiment: on-chip dynamic sequencing of QP1165, 500 nM PS1875 plus five recognizers, 7305 alignments
[12] = biological target: T4, QP1165 after cleavage to N-terminal …; experiment: on-chip dynamic sequencing of QP1165, PS1875 run, trace Aperture=1311609
[13] = biological target: T4, QP1165 after cleavage to N-terminal …; experiment: on-chip dynamic sequencing of QP1165, 500 nM PS2132 plus five recognizers, 36192 alignments
[14] = biological target: T4, QP1165 after cleavage to N-terminal …; experiment: on-chip dynamic sequencing of QP1165, PS2121 run, trace Aperture=1683362
[15] = biological target: T4, QP1165 after cleavage to N-terminal …; experiment: on-chip dynamic sequencing of QP1165, PS2123 run, trace Aperture=1168773
[16] = biological target: T4, QP1165 after cleavage to N-terminal …; experiment: on-chip dynamic sequencing of QP1165, 500 nM PS1875 plus five recognizers, 11565 alignments
Procedure: as §3

[17] = biological target: T4, QP1165 after cleavage to N-terminal …; experiment: on-chip dynamic sequencing of QP1165, PS2123 run, trace Aperture=501326
[18] = biological target: T4, QP1165 after cleavage to N-terminal …; experiment: on-chip dynamic sequencing of QP1165, 500 nM PS2121 plus five recognizers, 15527 alignments
[19] = biological target: T4, QP1165 after cleavage to N-terminal …; experiment: on-chip dynamic sequencing of QP1165, PS2132 run, trace Aperture=1826247
[20] = biological target: T4, QP1165 after cleavage to N-terminal …; experiment: on-chip dynamic sequencing of QP1165, PS1875 run, trace Aperture=1353995
[21] = biological target: T5, LA Peptide (fluorescence polarization); experiment: fluorescence polarization, FITC peptide titrated with protein
T5 peptide: LAKLDEESILKQK(FITC)

[22] = biological target: T6, MA Peptide (fluorescence polarization); experiment: as above
T6 peptide: MAKLDEESILKQK(FITC)

[23] = biological target: T7, AA Peptide (fluorescence polarization), AAKLDEESILKQ{LYS(FITC)}; experiment: as above
T7 peptide: AAKLDEESILKQK(FITC)

[24] = biological target: VA Peptide (fluorescence polarization) (FITC on the C-terminal lysine); experiment: as above
[25] = biological target: T8, IA peptide (Octet assay of PS557 variants); experiment: Octet (BLI), peptide on sensor, response after 200 s association
T8 construct: Peptide coated on the Octet sensor
Source text: (§4) In the high-throughput assay, Octet sensors are coated with the peptide of interest and dipped in buffer containing the purified protein. An approximation of relative binding can be obtained by comparing the response after 200 seconds for each protein. Each protein has approximately the same molecular mass and is used at the same concentration, so ranking the proteins by response level in this assay gives an approximation of which proteins have improved binding. Studying the on and off-rate can also give insight into the mechanism of binding.

[26] = biological target: T9, FA peptide (Octet assay of PS557 variants); experiment: as above
T9 construct: Peptide coated on the Octet sensor
Source text: as §4

[27] = biological target: T10, WA peptide (Octet assay of PS557 variants); experiment: as above
T10 construct: Peptide coated on the Octet sensor
Source text: as §4

[28] = biological target: T11, MA peptide (Octet assay of PS557 variants); experiment: as above
T11 construct: Peptide coated on the Octet sensor
Source text: as §4

[29] = biological target: T12, YA peptide (Octet assay of PS557 variants); experiment: as above
T12 construct: Peptide coated on the Octet sensor
Source text: as §4

[30] = biological target: T8, IA peptide (Octet assay of PS557 …); experiment: as above; remark: listed apart in the source
Source text: (§5) In the high-throughput assay, Octet sensors are coated with the peptide of interest and dipped in buffer containing the purified protein. […] Studying the on and off-rate can also give insight into the mechanism of binding.

[31] = biological target: T13, AA peptide (Octet assay of PS557 variants); experiment: as above
T13 construct: Peptide coated on the Octet sensor
Source text: as §5

[32] = biological target: T9, FA peptide (Octet assay of PS557 …); experiment: as above; remark: listed apart in the source
Source text: as §5

[33] = biological target: T14, VA peptide (Octet assay of PS557 variants); experiment: as above
T14 construct: Peptide coated on the Octet sensor
Source text: as §5

[34] = biological target: T11, MA peptide (Octet assay of PS557 …); experiment: as above; remark: listed apart in the source
Source text: as §5

[35] = biological target: T15, LA peptide (Octet assay of PS557 variants); experiment: as above
T15 construct: Peptide coated on the Octet sensor
Source text: as §5

B2: PS1587 (designed binder)
single polypeptide, two PS1165 units in tandem: MGLENSLETLRFSISNLSMQTHAARMRTFMYWPSSVPVQPEQLASAGFYYVGRNDDVKCFCCDGGLRCWESGDDPWVEHAKWFPRCEFLIRMKGQEFVDEIQGRYPHLLEQLLSEAAAKEAAAKEAAAKMGLENSLETLRFSISNLSMQTHAARMRTFMYWPSSVPVQPEQLASAGFYYVGRNDDVKCFCCDGGLRCWESGDDPWVEHAKWFPRCEFLIRMKGQEFVDEIQGRYPHLLEQLLSG
notes: also called PS1587 (AST)
PD of a recognition segment in an example trace [5]: 0.75 s
PD of a recognition segment in an example trace [6]: 0.64 s
IPD (interpulse duration) [7]: 17.4 s
PD (pulse duration) [7]: 0.7 s
PD of a recognition segment in an example trace [8]: 0.75 s
IPD (interpulse duration) [9]: 14.7 s
PD (pulse duration) [9]: 0.76 s
PD of a recognition segment in an example trace [10]: 0.32 s
IPD (interpulse duration) [11]: 15 s
PD (pulse duration) [11]: 0.66 s
PD of a recognition segment in an example trace [12]: 1.26 s
IPD (interpulse duration) [13]: 16.1 s
PD (pulse duration) [13]: 0.62 s
PD of a recognition segment in an example trace [14]: 2.53 s
PD of a recognition segment in an example trace [15]: 0.43 s
IPD (interpulse duration) [16]: 17.2 s
PD (pulse duration) [16]: 0.72 s
PD of a recognition segment in an example trace [17]: 0.39 s
IPD (interpulse duration) [18]: 16 s
PD (pulse duration) [18]: 0.72 s
PD of a recognition segment in an example trace [19]: 0.64 s
PD of a recognition segment in an example trace [20]: 0.87 s

B4: PS963 (designed binder)
chain: MPTAASATESAIEDTPAPARPEVDGRTKPKRQPRYHVVLWDDDDHTYQYVVVMLRSLFGHPPARGYRLAKEMDTQGRVIVLTTTREHAELKRDQIHAFGRDRLLARSKGSMKASIEAEE
notes: Variant of PS557
Octet response [30]: 10.2 nm
Octet response [31]: 4.06 nm
Octet response [32]: 2.25 nm
Octet response [33]: 10.4 nm
Octet response [34]: 8.4 nm
Octet response [35]: 9.65 nm

B6: PS961 (designed binder)
chain: B4 chain with A63S, L68M
notes: Variant of PS557; also called N41D, V72M, Q55R, E63S, L68M, Y100R
Kd [22]: 143 nM
Kd [23]: 3300 nM
Octet response [30]: 11.5 nm
Octet response [31]: 4.87 nm
Octet response [32]: 2.05 nm
Octet response [33]: 11.3 nm
Octet response [34]: 9.26 nm
Octet response [35]: 11.8 nm

Next, values leading:

Kd [1]: 475 nM
binding result [2]: binds
Kd [3]: 6770 nM
Kd [4]: 475 nM
B1: PS621 (other)
chain: MHSKFSHAGRICGAKFKVGEPIYRCKECSFDDTCVLCVNCFNPKDHTGHHVYTTICTEFNNGICDCGDKEAWNHTLFCKAEEG
notes: tag of the assay construct not specified; also called UBR protein from Kluyveromyces marxianus

Kd [21]: 19 nM
Kd [22]: 1140 nM
Kd [23]: 5140 nM
Kd [24]: 142 nM
Octet response [25]: 9.38 nm
Octet response [26]: 0.102 nm
Octet response [27]: 0.0292 nm
Octet response [28]: 5.48 nm
Octet response [29]: 0.177 nm
B3: PS852 (designed binder)
chain: B4 chain with R31H, A63E, R100Y
notes: Variant of PS557

Kd [21]: 10 nM
Kd [22]: 648 nM
Kd [23]: 6770 nM
Kd [24]: 205 nM
Octet response [25]: 13.5 nm
Octet response [26]: 0.673 nm
Octet response [27]: 0.165 nm
Octet response [28]: 9.5 nm
Octet response [29]: 1.31 nm
B5: PS824 (designed binder)
chain: B4 chain with I12F, A63E, R100Y
notes: Variant of PS557

Kd [21]: 7 nM
Kd [22]: 746 nM
Kd [23]: 15000 nM
Kd [24]: 487 nM
B7: PS857 (designed binder)
chain: B4 chain with R55Q, A63E, L68M, R100Y
notes: Variant of PS557; also called N41D, V72M, L68M
